IntAct's records for PubMed 20153263

B1: Protein AF-9 (Homo sapiens), P42568 (parent)
chain: MASSCAVQVKLELGHRAQVRKKPTVEGFTHDWMVFVRGPEHSNIQHFVEKVVFHLHESFPRPKRVCKDPPYKVEESGYAGFILPIEVYFKNKEEPRKVRFDYDLFLHLEGHPPVNHLRCEKLTFNNPTEDFRRKLLKAGGDPNRSIHTSSSSSSSSSSSSSSSSSSSSSSSSSSSSSSSSSSSSSSSSSSTSFSKPHKLMKEHKEKPSKDSREHKSAFKEPSRDHNKSSKESSKKPKENKPLKEEKIVPKMAFKEPKPMSKEPKPDSNLLTITSGQDKKAPSKRPPISDSEELSAKKRKKSSSEALFKSFSSAPPLILTCSADKKQIKDKSHVKMGKVKIESETSEKKKSTLPPFDDIVDPNDSDVEENISSKSDSEQPSPASSSSSSSSSFTPSQTRQQGPLRSIMKDLHSDDNEEESDEVEDNDNDSEMERPVNRGGSRSRRVSLSDGSDSESSSASSPLHHEPPPPLLKTNNNQILEVKSPIKQSKSDKQIKNGECDKAYLDELVELHRRLMTLRERHILQQIVNLIEETGHFHITNTTFDFDLCSLDKTTVRKLQSYLETSGTS
B2: Protein ENL (Homo sapiens), Q03111 (parent)
chain: MDNQCTVQVRLELGHRAQLRKKPTTEGFTHDWMVFVRGPEQCDIQHFVEKVVFWLHDSFPKPRRVCKEPPYKVEESGYAGFIMPIEVHFKNKEEPRKVCFTYDLFLNLEGNPPVNHLRCEKLTFNNPTTEFRYKLLRAGGVMVMPEGADTVSRPSPDYPMLPTIPLSAFSDPKKTKPSHGSKDANKESSKTSKPHKVTKEHRERPRKDSESKSSSKELEREQAKSSKDTSRKLGEGRLPKEEKAPPPKAAFKEPKMALKETKLESTSPKGGPPPPPPPPPRASSKRPATADSPKPSAKKQKKSSSKGSRSAPGTSPRTSSSSSFSDKKPAKDKSSTRGEKVKAESEPREAKKALEVEESNSEDEASFKSESAQSSPSNSSSSSDSSSDSDFEPSQNHSQGPLRSMVEDLQSEESDEDDSSSGEEAAGKTNPGRDSRLSFSDSESDNSADSSLPSREPPPPQKPPPPNSKVSGRRSPESCSKPEKILKKGTYDKAYTDELVELHRRLMALRERNVLQQIVNLIEETGHFNVTNTTFDFDLFSLDETTVRKLQSCLEAVAT
B3: Protein AF-9 (Homo sapiens), P42568 (parent)
chain: B1 chain
partner: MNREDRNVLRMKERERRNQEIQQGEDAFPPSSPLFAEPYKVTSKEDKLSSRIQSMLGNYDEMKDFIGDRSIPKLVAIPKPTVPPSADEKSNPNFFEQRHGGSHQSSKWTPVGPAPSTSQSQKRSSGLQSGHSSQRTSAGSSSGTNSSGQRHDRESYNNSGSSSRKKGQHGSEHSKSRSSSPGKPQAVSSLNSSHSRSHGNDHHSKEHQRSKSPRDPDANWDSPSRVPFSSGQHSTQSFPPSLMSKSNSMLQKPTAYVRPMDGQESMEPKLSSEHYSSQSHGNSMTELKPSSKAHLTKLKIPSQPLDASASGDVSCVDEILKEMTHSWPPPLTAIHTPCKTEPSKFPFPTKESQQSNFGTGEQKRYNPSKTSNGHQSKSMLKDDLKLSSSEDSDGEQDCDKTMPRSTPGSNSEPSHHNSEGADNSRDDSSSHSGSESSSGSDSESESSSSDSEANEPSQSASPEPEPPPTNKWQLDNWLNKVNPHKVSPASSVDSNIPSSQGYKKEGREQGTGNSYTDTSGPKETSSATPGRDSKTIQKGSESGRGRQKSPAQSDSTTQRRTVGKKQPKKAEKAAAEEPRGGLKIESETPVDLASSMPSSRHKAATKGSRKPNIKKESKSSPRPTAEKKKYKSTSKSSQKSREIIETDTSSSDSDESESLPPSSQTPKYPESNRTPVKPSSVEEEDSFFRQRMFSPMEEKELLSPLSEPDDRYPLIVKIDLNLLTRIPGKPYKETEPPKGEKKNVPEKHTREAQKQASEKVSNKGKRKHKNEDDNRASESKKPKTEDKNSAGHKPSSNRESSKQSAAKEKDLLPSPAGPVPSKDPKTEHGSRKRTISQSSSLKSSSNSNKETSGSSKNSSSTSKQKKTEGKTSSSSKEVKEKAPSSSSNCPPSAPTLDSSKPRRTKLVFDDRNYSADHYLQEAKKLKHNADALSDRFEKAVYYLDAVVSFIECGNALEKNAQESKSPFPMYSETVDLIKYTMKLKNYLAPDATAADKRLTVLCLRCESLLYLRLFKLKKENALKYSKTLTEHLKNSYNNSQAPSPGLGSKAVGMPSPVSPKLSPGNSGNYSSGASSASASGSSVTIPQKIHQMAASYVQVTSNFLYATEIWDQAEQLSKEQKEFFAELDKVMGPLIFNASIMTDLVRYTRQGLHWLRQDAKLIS
B4: Protein ENL (Homo sapiens), Q03111 (parent)
chain: B2 chain
partner: B3 partner

Variants of: B1
Conditions: with dot1l_human DOT1L

Row | effect of a mutation on the interaction | Variant
1 | decreasing interaction | L558E

Variants of: B2
Conditions: with dot1l_human DOT1L

Row | effect of a mutation on the interaction | Variant
2 | decreasing interaction | L550E

Variants of: B3
Conditions: with aff4_human AFF4, Q9UHB7

Row | effect of a mutation on the interaction | Variant
3 | decreasing interaction | L558E

Variants of: B4
Conditions: with aff4_human AFF4, Q9UHB7

Row | effect of a mutation on the interaction | Variant
4 | disrupting interaction | L550E
